Results taken from patent publication KR20220090395A (dated 2022).
Numbering of substitutions follows the chain as printed. Like-named read-outs stand apart in the source and are kept apart here.

Columns and labels:
[1] = biological target: T1, SARS-CoV-2 RBD (Biotinylated SARS-CoV-2 RBD, Acrobio 시스템) (SARS-CoV-2, UniProt P0DTC2 319-537)
[2] = biological target: SARS-CoV-1 RBD (SARS-CoV-1, UniProt P59594 306-527); experiment: binding measurement of Fig. 20; method not given
[3] = biological target: T1, SARS-CoV-2 RBD (Biotinylated SARS-CoV-2 …); experiment: BLI; IgG1 made in CHO cells

B1: D27 항체 (designed full-length antibody D27) (antibody, V domains shown)
VH: QVQLQQSGAEVKKPGSSVKVSCKASGGTFGNWSISWVRQAPGQGLEWMGGIDPSRGEATYAQKFQGRVTITTDESTSTAYMELSSLRSEDTAVYYCARETEQGGMDVWGQGTTVTVSS
VL: SYELTQPPSVSVAPGKTARITCGGNNIGRKSVHWYQQKPGQAPVLVVYDDSDRPSGIPERFSGSNSGNTATLTISRVEAGDEADYYCQVYDLFSDYVFGTGTKVEIK
[1]
  Kd: 175 nM

B2: D27LEY (IgG1 형태) (antibody, V domains shown)
VH: QVQLQQSGAEVKKPGSSVKVSCKASGGTFGNWSISWVRQAPGQGLEWMGGIAPGRGEATYAQKFQGRVTITTDESTSTAYMELSSLRSEDTAVYYCARETWYTSGGMDVWGQGTTVTVSS
VL: SYELTQPPSVSVAPGKTARITCGGNNIGRKSVHWYQQKPGQAPVLVVYDDSDRPSGIPERFSGSNSGNTATLTISRVEAGDEADYYCQVYDLWSSDYVFGTGTKVTVL
[2]
  Kd: < 0.001 nM

B3: D27LE (IgG1 형태) (antibody, V domains shown)
VH: B2 VH with A52D, G54S
VL: B2 VL
[3]
  Kd: 7.1 nM
